Results published in patent US20060110401A1, “Mixture of peptides from c and ns3 proteins of the hepatitis c virus and applications thereof” (priority 2002, published 2006).
No end group written: not given here.

Columns and labels:
[1] = target: T1, HLA-DR13 (DRB1*1301) (human); assay: competition ELISA, purified HLA II; unlabeled peptide against its own biotinylated tracer
T1 chain 1: not shown
T1 chain 2: not shown

[2] = target: T2, HLA-DP401 (DPB1*0401) (human), P20036; assay: competition binding; details: chains peptide; modification not given
T2 chain 1: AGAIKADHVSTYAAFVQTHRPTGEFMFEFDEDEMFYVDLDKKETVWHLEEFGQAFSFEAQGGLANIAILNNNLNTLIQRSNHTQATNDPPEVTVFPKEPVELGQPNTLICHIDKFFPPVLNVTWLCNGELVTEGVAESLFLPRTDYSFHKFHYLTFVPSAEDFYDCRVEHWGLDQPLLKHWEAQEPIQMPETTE
T2 chain 2: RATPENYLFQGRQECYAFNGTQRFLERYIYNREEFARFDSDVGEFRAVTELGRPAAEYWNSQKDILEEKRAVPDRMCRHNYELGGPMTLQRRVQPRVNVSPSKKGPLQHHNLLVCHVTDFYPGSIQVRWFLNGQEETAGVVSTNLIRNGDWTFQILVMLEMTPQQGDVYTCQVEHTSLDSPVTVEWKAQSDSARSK

[3] = target: HLA-DR1 (DRB1*0101) (human); assay: competition binding; details: chains peptide; modification not given
[4] = target: HLA-DR11 (DRB1*1101) (human); assay: competition binding; details: chains peptide; modification not given
[5] = target: HLA-DR13 (DRB1*1301) (human); assay: competition binding; details: chains peptide; modification not given
[6] = target: HLA-DR3 (DRB1*0301) (human); assay: competition binding; details: chains peptide; modification not given
[7] = target: HLA-DR4 (DRB1*0401) (human); assay: competition binding; details: chains peptide; modification not given
[8] = target: HLA-DR7 (DRB1*0701) (human); assay: competition binding; details: chains peptide; modification not given
[9] = target: HLA-DRB3 (DRB3*0101) (human); assay: competition binding; details: chains peptide; modification not given
[10] = target: HLA-DRB5 (DRB5*0101) (human); assay: competition binding; details: chains peptide; modification not given
[11] = target: HLA-DR15 (DRB1*1501) (human); assay: competition binding; details: chains peptide; modification not given
[12] = target: HLA-DP402 (DPB1*0402) (human), P20036; assay: competition binding; details: chains peptide; modification not given
[13] = target: HLA-DRB4 (DRB4*0101) (human); assay: competition binding; details: chains peptide; modification not given
[14] = target: T3, HLA-DRB4 (DRB4*0101) (human); assay: competition ELISA, purified HLA II; tracer biotinylated E2/E168
T3 chain 1: not shown
T3 chain 2: not shown

[15] = target: T4, HLA-DR3 (DRB1*0301) (human); assay: competition ELISA, purified HLA II; tracer biotinylated MT 2-16
T4 chain 1: not shown
T4 chain 2: not shown

[16] = target: T5, HLA-DR15 (DRB1*1501) (human); assay: competition ELISA, purified HLA II; tracer biotinylated A3 152-166
T5 chain 1: not shown
T5 chain 2: not shown

[17] = target: T6, HLA-DR1 (DRB1*0101) (human); assay: competition ELISA, purified HLA II; tracer biotinylated HA 306-318
T6 chain 1: not shown
T6 chain 2: not shown

[18] = target: T7, HLA-DR11 (DRB1*1101) (human); assay: as above
T7 chain 1: not shown
T7 chain 2: not shown

[19] = target: T8, HLA-DR4 (DRB1*0401) (human); assay: as above
T8 chain 1: not shown
T8 chain 2: not shown

[20] = target: T9, HLA-DRB5 (DRB5*0101) (human); assay: as above
T9 chain 1: not shown
T9 chain 2: not shown

[21] = target: T10, HLA-DR7 (DRB1*0701) (human); assay: competition ELISA, purified HLA II; tracer biotinylated YKL
T10 chain 1: not shown
T10 chain 2: not shown

## TERVRLVTRHIYNREE (not fully specified) [B1 21-36 (nonbiotinylated)]
[1]
  IC50: 330 nM

## GHAVGIFRAAVCTRGVAKAVDF [15N 1174-1195]
[2]
  IC50: 17800 nM

## SSDLYLVTRHADVIPVRRRGDSRGSLL [13N 1127-1153]
[2]
  IC50: > 100000 nM
[3]
  IC50: 700 nM
[4]
  IC50: 17 nM
[5]
  IC50: 300 nM
[6]
  IC50: > 100000 nM
[7]
  IC50: 3500 nM
[8]
  IC50: 17 nM
[9]
  IC50: > 10000 nM
[10]
  IC50: 500 nM

## RSPVFTDNSSPPVVPQSFQVAHLHAPTGSGKSTK [17N 1206-1239]
[4]
  IC50: 550 nM
[5]
  IC50: > 100000 nM
[11]
  IC50: 10000 nM
[7]
  IC50: 425 nM
[10]
  IC50: 350 nM

## KPGIYRFVAPGERPSGMFD [27N 1495-1513]
[2]
  IC50: > 100000 nM
[12]
  IC50: > 100000 nM
[3]
  IC50: 163 nM
[5]
  IC50: > 100000 nM
[11]
  IC50: 150 nM
[6]
  IC50: > 100000 nM
[7]
  IC50: 1250 nM
[9]
  IC50: 40000 nM
[13]
  IC50: 138 nM
[10]
  IC50: 2 nM

## IEEVALSTTGEIPFYGKAIPLEVIKG [22N 1362-1387]
[3]
  IC50: 33 nM

## VGGVYLLPRRGPRLGVRATRKTSERSQ [2C 31-57]
[2]
  IC50: > 100000 nM
[12]
  IC50: > 100000 nM

## DPNIRTGVRTITTGSPITYSTYGKFLADGG [19N 1275-1304]
[3]
  IC50: 150 nM
[5]
  IC50: > 100000 nM
[11]
  IC50: 550 nM
[6]
  IC50: > 100000 nM
[7]
  IC50: 500 nM
[9]
  IC50: 150 nM
[13]
  IC50: 3500 nM

## AQGYKVLVLNPSVAATLGFGAYMSKAHGID [18N 1246-1275]
[2]
  IC50: > 100000 nM
[3]
  IC50: 1 nM
[4]
  IC50: 40 nM
[5]
  IC50: 900 nM
[11]
  IC50: 58 nM
[7]
  IC50: 5 nM
[9]
  IC50: > 30000 nM
[10]
  IC50: 1250 nM

## PQDVKFPGGGQIVGGVYLLPRRGPRLGVR [1C 19-47]
[3]
  IC50: 350 nM
[4]
  IC50: 58 nM
[6]
  IC50: > 100000 nM
[7]
  IC50: 70000 nM
[9]
  IC50: > 100000 nM
[13]
  IC50: 6000 nM
[10]
  IC50: 9 nM

## AAKLVALGINAVAYYRGLDVSVIPTSGDV [24N 1404-1432]
[2]
  IC50: 32700 nM
[12]
  IC50: 7040 nM

## KNQVEGEVQIVSTAAQTFLAT [10N 1052-1072]
[3]
  IC50: 400 nM
[4]
  IC50: 200 nM
[8]
  IC50: 7 nM
[9]
  IC50: 10000 nM
[13]
  IC50: 400 nM

## GCIITSLTGRDKNQV (modifications not checked) [9N 1041-1055]
[14]
  IC50: 65000 nM
[15]
  IC50: 62500 nM
[16]
  IC50: 525 nM
[17]
  IC50: 190 nM
[18]
  IC50: 2600 nM
[19]
  IC50: 2900 nM
[20]
  IC50: 11 nM

## GREILLGPADGMVSKGWRLLAPITAYAQQTR [8N 1007-1037]
[17]
  IC50: 2 nM
[4]
  IC50: 1 nM
[5]
  IC50: 1250 nM
[11]
  IC50: 30 nM
[6]
  IC50: 200 nM
[7]
  IC50: 10 nM
[13]
  IC50: 60 nM

## WAGWLLSPRGSRPSW (modifications not checked) [3C 93-107]
[17]
  IC50: 6330 nM

## DAHFLSQTKQSGENL (modifications not checked) [29N 1569-1583]
[21]
  IC50: 3000 nM
[16]
  IC50: 2800 nM
[17]
  IC50: 950 nM
[18]
  IC50: 22 nM
[19]
  IC50: 10500 nM
[20]
  IC50: 21000 nM

## TRGLLGCIITSLTGRDKNQV (modifications not checked) [9N 1036-1055, P26664 1036-1055]
[21]
  IC50: 2600 nM
[14]
  IC50: 1000 nM
[16]
  IC50: 5500 nM
[17]
  IC50: 51 nM
[18]
  IC50: 700 nM
[19]
  IC50: 950 nM
[20]
  IC50: 53 nM
